Data taken from paper PMC10042821 (2023).

B1: eukaryotic translation factor 5A-1 (eIF5A-1), residues 15-151 (domain or fragment)
chain: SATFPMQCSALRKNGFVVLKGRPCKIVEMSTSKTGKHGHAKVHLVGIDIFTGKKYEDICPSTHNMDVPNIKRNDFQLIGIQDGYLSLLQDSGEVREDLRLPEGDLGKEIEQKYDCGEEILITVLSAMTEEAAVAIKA
B2: deoxyhypusine synthase, wild type, His-tagged (enzyme)
chain: MEGSLEREAPAGALAAVLKHSSTLPPESTQVRGYDFNRGVNYRALLEAFGTTGFQATNFGRAVQQVNAMIEKKLEPLSQDEDQHADLTQSRRPLTSCTIFLGYTSNLISSGIRETIRYLVQHNMVDVLVTTAGGVEEDLIKCLAPTYLGEFSLRGKELRENGINRIGNLLVPNENYCKFEDWLMPILDQMVMEQNTEGVKWTPSKMIARLGKEINNPESVYYWAQKNHIPVFSPALTDGSLGDMIFFHSYKNPGLVLDIVEDLRLINTQAIFAKCTGMIILGGGVVKHHIANANLMRNGADYAVYINTAQEFDGSDSGARPDEAVSWGKIRVDAQPVKVYADASLVFPLLVAETFAQKMDAFMHEKNED

Columns and labels:
[1] = biological target: T1, deoxyhypusine synthase delY305_I306, patient-derived variant, His-tagged (human, UniProt P49366 1-369, delY305_I306); assay: MST; + NAD
[2] = biological target: deoxyhypusine synthase N173S, patient-derived variant, His-tagged (human, UniProt P49366 1-369, N173S); assay: MST; + NAD + SPD
[3] = biological target: T1, deoxyhypusine synthase delY305_I306, …; assay: MST; + NAD + SPD
[4] = biological target: B1; assay: MST; + NAD
[5] = biological target: B1; assay: MST; + NAD + SPD

Row | Kd [1] [nM] | Kd [2] [nM] | Kd [3] [nM] | Kd [4] [nM] | Kd [5] [nM] | Binder
1 | 368 | 426 | 1580 |  |  | B1
2 |  |  |  | 27 | 81.7 | B2
